Source: paper PMC6422423, “Constitutively active BRS3 is a genuinely orphan GPCR in placental mammals” (PLoS Biology, 2019)
One block for each molecule: values may come before it.

How the values were obtained:
[1] = test system: mouse BRS3 (mBRS3); test: Luciferase reporter, constitutive activity (WT, mutants, truncated; with/without inhibitor); type: cell-based; set-up: key to constitutive luciferase activity: fold over pcDNA-transfected blank control (blank = 1); settings: CRE, no ligand
Protocol: (§1) To detect constitutive activity of BRS3, HEK293 cells were seeded in 24-well plates and cotransfected with the CRE/NFAT-RE/SRF-RE/SRE luciferase reporter plasmids (50 ng), the BRS3 from different species, or BRS3 mutants with different doses (10 ng/50 ng/150 ng); after 24 h, cells were further incubated in serum-free media for another 12 h before luciferase assay. As for peptide supplementation treatment, HEK293 cells were cotransfected with the CRE/NFAT-RE/SRF-RE/SRE luciferase reporter plasmids (50 ng) and various genes (300 ng) of the bombesin receptor family. […] Luciferase activities were determined using luciferase assay kits (Beyotime, Shanghai, China) and normalized to β-galactosidase activity. All experiments were performed at least three times in triplicates. HEK293 cells transfected with pcDNA were used as a blank control in all luciferase experiments, and the fold was calculated compared to blank control.

[2] = test system: human BRS3 (hBRS3); test: as above; type: cell-based; settings: for luciferase, CRE / luciferase, NFAT / luciferase, SRE / luciferase, SRF: Blank = 1; for CRE luciferase reporter activity relative to Blank (Blank = 1) / NFAT luciferase reporter activity relative to Blank (Blank = 1) / SRF luciferase reporter activity relative to Blank (Blank = 1): constitutive
Protocol: as §1

[3] = hBRS3 WT and mutant 3, replicate 1
[4] = hBRS3 WT and mutant 3, replicate 2
[5] = hBRS3 WT and mutant 3, third line, unlabelled, equals mean of the two replicates
[6] = full-length hBRS3 and truncated N-hBRS3, replicate 1
[7] = full-length hBRS3 and truncated N-hBRS3, replicate 2
[8] = full-length hBRS3 and truncated N-hBRS3, third line, unlabelled, equals mean of the two replicates

constitutive luciferase activity ([1]; mean): 17.158
constitutive luciferase activity ([1]; replicate 1): 17.4198
constitutive luciferase activity ([1]; replicate 2): 16.8962
B1: mBRS3-P372A (protein, UniProt O54798 1-399, looked up, variant P372A)
Bombesin receptor subtype-3: MSQRQSQSPNQTLISITNDTETSSSVVSNDTTHKGWTGDNSPGIEALCAIYITYAGIISVGILGNAILIKVFFKTKSMQTVPNIFITSLAFGDLLLLLTCVPVDATHYLAEGWLFGKVGCKVLSFIRLTSVGVSVFTLTILSADRYKAVVKPLERQPPNAILKTCAKAGGIWIVSMIFALPEAIFSNVYTFQDPNRNVTFESCNSYPISERLLQEIHSLLCFLVFYIIPLSIISVYYSLIARTLYKSTLNIPTEEQSHARKQIESRKRIAKTVLVLVALFALCWLPNHLLYLYHSFTYESYANHSDVPFVIIIFSRVLAFSNSCVNPFALYWLSKTFQQHFKAQLCCLKAEQPEPPLGDIPLNNLTVMGRVAATGSAHVSEISVTLFSGSSAKKGEDKV

luciferase, CRE ([2]; value 1 of 3): 4.2545
luciferase, NFAT ([2]; value 1 of 3): 6.3808
luciferase, SRE ([2]; value 1 of 3): 1.2780
luciferase, SRF ([2]; value 1 of 3): 4.0202
luciferase, CRE ([2]; value 2 of 3): 3.9246
luciferase, NFAT ([2]; value 2 of 3): 6.2351
luciferase, SRE ([2]; value 2 of 3): 1.0242
luciferase, SRF ([2]; value 2 of 3): 3.9201
luciferase, CRE ([2]; value 3 of 3): 4.0896
luciferase, NFAT ([2]; value 3 of 3): 6.5264
luciferase, SRE ([2]; value 3 of 3): 1.5319
luciferase, SRF ([2]; value 3 of 3): 4.1204
B2: human (protein, UniProt P32247 1-399, looked up)
Bombesin receptor subtype-3: MAQRQPHSPNQTLISITNDTESSSSVVSNDNTNKGWSGDNSPGIEALCAIYITYAVIISVGILGNAILIKVFFKTKSMQTVPNIFITSLAFGDLLLLLTCVPVDATHYLAEGWLFGRIGCKVLSFIRLTSVGVSVFTLTILSADRYKAVVKPLERQPSNAILKTCVKAGCVWIVSMIFALPEAIFSNVYTFRDPNKNMTFESCTSYPVSKKLLQEIHSLLCFLVFYIIPLSIISVYYSLIARTLYKSTLNIPTEEQSHARKQIESRKRIARTVLVLVALFALCWLPNHLLYLYHSFTSQTYVDPSAMHFIFTIFSRVLAFSNSCVNPFALYWLSKSFQKHFKAQLFCCKAERPEPPVADTSLTTLAVMGTVPGTGSIQMSEISVTSFTGCSVKQAEDRF

Further lines, the molecule ahead of its results:

B3: hBRS3-WT (protein, UniProt P32247 1-399, looked up)
Bombesin receptor subtype-3: MAQRQPHSPNQTLISITNDTESSSSVVSNDNTNKGWSGDNSPGIEALCAIYITYAVIISVGILGNAILIKVFFKTKSMQTVPNIFITSLAFGDLLLLLTCVPVDATHYLAEGWLFGRIGCKVLSFIRLTSVGVSVFTLTILSADRYKAVVKPLERQPSNAILKTCVKAGCVWIVSMIFALPEAIFSNVYTFRDPNKNMTFESCTSYPVSKKLLQEIHSLLCFLVFYIIPLSIISVYYSLIARTLYKSTLNIPTEEQSHARKQIESRKRIARTVLVLVALFALCWLPNHLLYLYHSFTSQTYVDPSAMHFIFTIFSRVLAFSNSCVNPFALYWLSKSFQKHFKAQLFCCKAERPEPPVADTSLTTLAVMGTVPGTGSIQMSEISVTSFTGCSVKQAEDRF
CRE luciferase reporter activity relative to Blank (Blank = 1) [2, 3]: 4.2545
CRE luciferase reporter activity relative to Blank (Blank = 1) [2, 4]: 3.9246
CRE luciferase reporter activity relative to Blank (Blank = 1) [2, 5]: 4.0896
NFAT luciferase reporter activity relative to Blank (Blank = 1) [2, 3]: 6.5264
NFAT luciferase reporter activity relative to Blank (Blank = 1) [2, 4]: 6.2351
NFAT luciferase reporter activity relative to Blank (Blank = 1) [2, 5]: 6.3808
SRF luciferase reporter activity relative to Blank (Blank = 1) [2, 3]: 4.1204
SRF luciferase reporter activity relative to Blank (Blank = 1) [2, 4]: 3.9201
SRF luciferase reporter activity relative to Blank (Blank = 1) [2, 5]: 4.0202

B4: hBRS3 (protein)
chain: MAQRQPHSPNQTLISITNDTESSSSVVSNDNTNKGWSGDNSPGIEALCAIYITYAVIISVGILGNAILIKVFFKTKSMQTVPNIFITSLAFGDLLLLLTCVPVDATHYLAEGWLFGRIGCKVLSFIRLTSVGVSVFTLTILSADRYKAVVKPLERQPSNAILKTCVKAGCVWIVSMIFALPEAIFSNVYTFRDPNKNMTFESCTSYPVSKKLLQEIHSLLCFLVFYIIPLSIISVYYSLIARTLYKSTLNIPTEEQSHARKQIESRKRIARTVLVLVALFALCWLPNHLLYLYHSFTSQTYVDPSAMHFIFTIFSRVLAFSNSCVNPFALYWLSKSFQKHFKAQLFCCKAERPEPPVADTSLTTLAVMGTVPGTGSIQMSEISVTSFTGCSVKQAEDRF
modifications: left off: V5 (from the vector pcDNA3.1-V5-His), end not stated, state not stated | His tag (from the vector pcDNA3.1-V5-His), end not stated, state not stated
CRE luciferase reporter activity relative to Blank (Blank = 1) [2, 6]: 3.5016
CRE luciferase reporter activity relative to Blank (Blank = 1) [2, 7]: 4.7486
CRE luciferase reporter activity relative to Blank (Blank = 1) [2, 8]: 4.1251
NFAT luciferase reporter activity relative to Blank (Blank = 1) [2, 6]: 5.5943
NFAT luciferase reporter activity relative to Blank (Blank = 1) [2, 7]: 5.6987
NFAT luciferase reporter activity relative to Blank (Blank = 1) [2, 8]: 5.6465
SRF luciferase reporter activity relative to Blank (Blank = 1) [2, 6]: 3.202
SRF luciferase reporter activity relative to Blank (Blank = 1) [2, 7]: 3.9147
SRF luciferase reporter activity relative to Blank (Blank = 1) [2, 8]: 3.5584
